Assay results from patent US20240343770A1 (SUNSHINE LAKE PHARMA, published 2024).

How the values were obtained:
human GFRAL (human) = human GFRAL (human) (UniProt Q6UXV0); test: cell-based or functional assay
[1] = target: the molecule itself; test: SEC of the purified Fc (self-association, aggregate state)
[2] = target: the molecule itself; test: SEC of the purified Fc (self-association)

Sequence of human GFRAL (human) (Q6UXV0 19-394): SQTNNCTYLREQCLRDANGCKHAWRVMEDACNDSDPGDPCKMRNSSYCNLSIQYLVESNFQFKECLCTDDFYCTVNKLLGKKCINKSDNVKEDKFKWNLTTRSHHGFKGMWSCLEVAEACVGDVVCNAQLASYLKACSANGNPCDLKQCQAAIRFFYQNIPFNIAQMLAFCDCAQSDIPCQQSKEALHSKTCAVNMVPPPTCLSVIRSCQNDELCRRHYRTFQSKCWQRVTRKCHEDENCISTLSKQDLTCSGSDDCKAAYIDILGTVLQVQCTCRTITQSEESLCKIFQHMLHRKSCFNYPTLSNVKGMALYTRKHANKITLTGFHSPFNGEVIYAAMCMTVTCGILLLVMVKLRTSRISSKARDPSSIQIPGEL

Molecule	binding result [1]	further results
native GDF15 (from UniProt Q99988 197-308) (ligand)	–	Relative activity ratio (native GDF15 EC50 : construct EC50), phospho-ERK1/2 HTRF in HEK293T cells expressing human GFRAL and RET (human GFRAL (human)): 1
IgG4 Fc (AA, K439E) (other, One Fc polypeptide) EAAGGPSVFLFPPKPKDTLMISRTPEVTCVVVDVSQEDPEVQFNWYVDGVEVHNAKTKPREEQFNSTYRVVSVLTVLHQDWLNGKEYKCKVSNKGLPSSIEKTISKAKGQPREPQVYTLPPSQEEMTKNQVSLTCLVKGFYPSDIAVEWESNGQPENNYKTTPPVLDSDGSFFLYSRLTVDKSRWQEGNVFSCSVMHEALHNHYTQESLSLSLG	binds	–
IgG4 Fc (AA, K439D) (other, One Fc polypeptide) EAAGGPSVFLFPPKPKDTLMISRTPEVTCVVVDVSQEDPEVQFNWYVDGVEVHNAKTKPREEQFNSTYRVVSVLTVLHQDWLNGKEYKCKVSNKGLPSSIEKTISKAKGQPREPQVYTLPPSQEEMTKNQVSLTCLVKGFYPSDIAVEWESNGQPENNYKTTPPVLDSDGSFFLYSRLTVDKSRWQEGNVFSCSVMHEALHNHYTQDSLSLSLG	binds	–
IgG4 Fc (AA, F405Q/Y407E) (other, Control Fc; found as a monomer by SEC; also called monomeric Fc molecule) EAAGGPSVFLFPPKPKDTLMISRTPEVTCVVVDVSQEDPEVQFNWYVDGVEVHNAKTKPREEQFNSTYRVVSVLTVLHQDWLNGKEYKCKVSNKGLPSSIEKTISKAKGQPREPQVYTLPPSQEEMTKNQVSLTCLVKGFYPSDIAVEWESNGQPENNYKTTPPVLDSDGSFQLESRLTVDKSRWQEGNVFSCSVMHEALHNHYTQKSLSLSLG	–	binding result [2]: no binding
